Earlier results on one substance are cited in PMC6558399.

This data set deals with Galectin-1 (Homo sapiens) (UniProt P09382).

For orientation: Kd means the equilibrium constant for the complex coming apart. On to Galectin-1 (from UniProt P09382), for which the Kd was 7 µM.
